Measurements reported in the DeepSol protein solubility set.

test: soluble on expression in E. coli; label from the status in PepcDB or PDB records

Soluble on expression in E. coli, not soluble:
MGSDKIHHHHHHLVGSGGTGAPPPRSSPMTTLYVTQPGSVVRSEGGSLTVWVETEADDPGPNDSPVRRKRLASVEPHRLESLVLLGFTTITANAMRLCMANKIAVSLLDGGGGLAARVVPPEARSADLRLHQYALHLDPPERLIRARAVVTAKLRNAAAVLRGIRSNQASSAALASAITQTEASAEAAAAAVSAESLLGIEGNGAHQYFAGLRTAFVGGIPFLGRAQRPPPDPANSLLSFGYVLLGNRLTGLLEARGVDPCLGFFHDLRPGRPSLALDLLEELRHPVVDRLALRICNLRKIQPQHFEPDAERPGGVKLTVDGRKIFLEEWEGHLARPLREPGVAAEHRLDVHRLLQRQVDRLVSDLRGGEPYRPFRFGTSRPG
MGSDKIHHHHHHMAAGHGVRPARVAISLYPGCAQLYLQAQRAGKAVEALETPEAHFSVLESISLEEQMLILRSVLKRSQEQREKDFELMIQAYLSGNLDKVGALDSALGVDGLPAGLWEKIRVKLLDERNMRMAERIAAAASLQPVFVAVGAAHLPGEGGLIDLLSRAGLPYLPSIASDARRRLTFMPHLPLTHARYNSSYFRRMDGLTMADRINLRPLERNDLHFVHKLNNNDTIMRYWFEEPYEAYDELVALYDRHIHDQNERRFIIELDNGELAGLVELVEINYIHRRAEFQIIIAPDYQGRGLAKSATRIAVGYAFRVLNLHKVYLVVDKENQAAIHVYEACGFEVEGRLKEEFFSNGSYRDVLRMRLLQDDYLRHVGPAPVDASVLREWQDQ
MGSDKIHHHHHHMAAILPARITKVLPDSIAAEIGFEAGDALVAINGVQPRDLIDYKFLCSDEFLELEVLDASGKTHHIEIEKDYDEDLGLEFETALFDGLIQCNNRCPFCFIDQQPPGKRSSLYLKDDDYRLSFLYGSYLTLTNLPEREWQRIEQMRLSPLYVSVHATEPEVRIRLLKNQRAAQILDQLRWFQARRLQIHAQVVVCPGINDGKHLEQTLRDLASFHDGDVPTVASVAVVPVGLTRFRPEEDELIPVTREKAQEVIAQVRSLTQEFRRQFGSNVAWLADEWFLIAGEELPSEAEYEEYPQIDNGVGSIRLFLKQFAETAAELLPTKINHPKKLTWVVGNAVEKAFQPILKSLNAVEGLEINMCALSSDYWGQTISVTGLITGHDLLLHLKEQDLGGGILLPNVMLKHGELVFLDDMSVEEVAQKLHTKIIPIAGVKELIKTCITDSVSV
MGSDKIHHHHHHMAAVGPRTGPGTGAEALALAAELQGEATCSICLELFREPVSVECGHSFCRACIGRCWERPGAGSVGAATRAPPFPLPCPQCREPARPSQLRPNRQLAAVATLLRRFSLPAAAPGEHGSQAAAARAAAARCGQHGEPFKLYCQDDGRAICVVCDRAREHREHAVLPLDEAVQEAKELLESRLRVLKKELEDCEVFRSTEKKESKELLKQMAAEQEKVGAEFQALRAFLVEQEGRLLGRLEELSREVAQKQNENLAQLGVEITQLSKLSSQIQETAQKPDLDFLQEFKSTLSR
MGSDKIHHHHHHMAAWRTVVIATSCHLRVRDRQLVIESREGERTQLPLADIGVVIVENPQVTLSAALLSALAQEGTALMSCDSSHLPDGVFAPFGTHSRHTRAARVQAVWSEPFKKRCWQKIVRAKVSSQAEVLRRVGAEDAARRLENLVGKVTSGDTTGVEAQAAQVYWRSLFVNFKRWDGGLDARNGGLNYGYAVLRGALGRAIAGAGLIPAFGLHHAGELNSFNLADDLIEPFRPFVDLLVWGLFLERTGDDPLTREERMRIAQILGESCIMTERYETLLSATQIIARSLVSAGEQKESRRLILPWMGEDDVQGEVYEADGDV
MGSDKIHHHHHHMADDETRKYVIPGLERGLTILMALSRSHREMSLAEIVKCVEWPKASVYRAVQTLEYMGFVRRHPSSGLYSLGVSVLRLGFEYVSSLDLVQVGQPVIESLRDRSGCSSHIVIRDGRDVIYVARVSAAGTTTHRVSVGTRLPVHRTSLGRVLLTGMSREAFERLYPDPELPDTRPGAPADREALWQLVQDDRARGYVVGESFFQLGISSIVYPLFTQEGDVAGAISIMVPVHEIPAEDRERLRGYVEDAAMTISEMLGYHDPRARRSDMP
MGSDKIHHHHHHMADLKKQIASGKIAPVYFFQGPESWLKEEIETQLKAAIFPSENEAALNTLVLYGPDLTLGQIVSAASEYPMFTEKKLVVVRQFDKLKKVTDKTESQRQEKSLLSYLSDPPSFTVLVLDADEIEKTELEKAPYKHLKAFRHDFGAIKNAEIFAAERAREAGWEFEPEALKTFSGYIEPSSRLICQEIEKLTLYASNKRPERRITLDDVCDCVGISRKYNVFELEKALVSKNLRQCSGIALMIMEQEGQKEGLMNIVRYLTTFFLRIWKLQTPGAQQLSLQETAAMLGMYGRQEYFAKNFIGYARQFSAAETENAILALRDADAALKGIIPSPDDRFTLLKLMQQLFN
MGSDKIHHHHHHMADYQQMWANLGMDLEKHDVLCEVLPEAFGGVYLTQQDRPKGMDFYDFVVSEIHGVRPAEMLQHQKEGGKVFGTFCVYVPDEVVFAAGGIAAGLCGGSQFWVSGGEKVLPANTCPLIKASVGARLDKTCPFFLIPDMYVAENTCDGKKKAWEILAGEVPMHIIDIPQMKRERDVAAFAAEIRDFIGVVEKVTGKKINAESLGEAIKLINNKRRALQRVYNARKASPVPISGKDALLVTQINFYDDPARAAQMANNLADELEQRINNGTGVFPENAPRIMISGTPMAIPNWKLHHIVESLGAAIVVEESCTGTRYFENLVDETASTLDEQIRALAERYMKTNCACFTPNSARIDDIIRLADEYKVDGIIDTNLQFCNLYSTESYLIKQVMTERNLPIIHIETDYSEQDFEQLRTRVEAFLEMLRK
MGSDKIHHHHHHMAELNKTKVRKELRTERPSIYSFELDEIKQWLTDNGEKPFRAAQIFEWLYEKRVSSFEDMTNLSKDLREKLNTRFVLTTLKTAVKQTSQDGTMKFLFELHDGYTIETVLMRHEYGNSVCVTTQVGCRIGCTFCASTLGGLKRNLEAGEIVAQVVKVQKALDETDERVSSVVIMGIGEPFDNFNEMLAFLKIINHDKGLNIGARHITVSTSGIIPKIYEFADQQMQINFAISLHAPNTEIRSRLMPINRAYKLPDLMEAVKYYINKTGRRISFEYGLFGGVNDQVEHAEELADLLEGVKCHVNLIPVNYVPERDYVRTPRDQIFAFEKTLKSRGVNVTIRREQGHDIDAACGQLRAKERQDETR
MGSDKIHHHHHHMAENWKNCFEEELICPICLHVFVEPVQLPCKHNFCRGCIGEAWAKDSGLVRCPECNQAYNQKPGLEKNLKLTNIVEKFNALHVEKPPAALHCVFCRRGPPLPAQKVCLRCEAPCCQSHVQTHLQQPSTARGHLLVEADDVRAWSCPQHNAYRLYHCEAEQVAVCQYCCYYSGAHQGHSVCDVEIRRNEIRKMLMKQQDRLEEREQDIEDQLYKLESDKRLVEEKVNQLKEEVRLQYEKLHQLLDEDLRQTVEVLDKAQAKFCSENAAQALHLGERMQEAKKLLGSLQLLFDKTEDVSFMKNTKSVKILMDRTQTCTSSSLSPTKIGHLNSKLFLNEVAKKEKQLRKMLEGPFSTPVPFLQSVPLYPCGVSSSGAEKRKHSTAFPEASFLETSSGPVGGQYGAAGTASGEGQSGQPLGPCSSTQHLVALPGGAQPVHSSPVFPPSQYPNGSAAQQPMLPQYGGRKILVCSVDNCYCSSVANHGGHQPYPRSGHFPWTVPSQEYSHPLPPTPSVPQSLPSLAVRDWLDASQQPGHQDFYRVYGQPSTKHYVTS
MGSDKIHHHHHHMAFNIDGSGNKSGVRSNMLSENNILKYGSNFSKANASSLNNKINSLNYTVEYINNELMGIFFRQGLKFGIFKAVEDFRPTISELITILGYPNEEFVEKYIKTAVSLNLLNLNEEERLELNSDFIYSSIHPEYDKIISDHVSRYDFMSGLVQYAFIGYDHPEILLNFKKDADIWDMMLNTKYMKTCREVISEYLDIKNGDTILEVGCGSRSPLYFASKVAPNGEYVGVDISKKLIRVAQGRLKRSGIECAKLKALDFSETIAKNKHDYVLCIHTLSYADSLKLFLKKMMGSLRKGGKLVIMEEFFTENINTNAELFEFYNHLNKYFKNYVSKTEILKELELIGIDYKYELLGDNCIVVERI
MGSDKIHHHHHHMAGTCGLTLGKYAPLHKGHQLVIETALAEMDEVLVMIYECPEVTAIPLTVRANWLRKIYPQILVIEAWDGPTEVGDTSEIKKMHEDYILKQLESKKITHFYCSEFYGEHVSQALGAVNRLVDCDRKTFPISGTQVRTDTYAMREYLHPDVYRDLIANIVFLGAPSTGKTTIASQLAKEYNTVWMPEYGREYWEKNQINRRLSLLQLVEIAKGHLEREEALLLQANQYLFTDTNALTTYQFSLYYHKTVAPELVQLAHQAMSRYDLVFLCDLDIPYDDTWDRSGEANRSIFQKQIESDLIVRKIPFFRLSGDLMTRISIVKKVLYYYQKYASLGELFFNKLIL
MGSDKIHHHHHHMAGVSPLSNRWSKQVLSNFEQAASTYNSQAQLQRAVAWRLARQCARQHIPAGFWVDLGSGTGLMADALEACNPHQAVLRVDGCHEMLKHHHHSSQTLLWDLNLGVPSWPQLPSLLASSFALHWLINPLERLHEWMAALTPEGWLALALPVEGSFPQWHQAAATAGVSCTALPFPSQASLLDVLSSNNIRHQQLHQFTQQSPEVFQLLKPMRQIGAQASPCSTMGVGNWRHLKQAWPRCQNSGDAQLTWLIQLLLIQR
MGSDKIHHHHHHMAHHAAPPINTTKFPIDRWWVAALSSELTDKPVARTLLGRPVVLFRLPSGEVGALEDRCCHKSLPLSCGSLEVRGLRCGYHGLLFDRDGACVEIPGQDRIPAKACVASYPVREQDAIVWIWIGAEAHAEPTCAPPRYPFHSDPQYRFGGGHYHYDAPYQLIHDNLMDLSHLGYVHLKTIGGNASLHMGAETRVSTDGDTVTLVRRMPDSEPPPTYTAAWPFAGRVDRWQEIEFHVSHIRIWTGAMDAGTGDLHDPARGGFHMRGFHGITPETETTTHYFWTVATNPQHDIERVARTVIEQSAATFDEDKTVIEAQYRNQLRFPDRRQIDIHVDAGPNRARRVIERLLLQPEPA
MGSDKIHHHHHHMAIACVNTRASCGVEAPKVTVEVHLSNGLPAFNLVGLPEASVKEARERVRSALINAGFEFPMRRITVNLAPADLPKQGGRYDLPIAVGILAASEQIPANSLKNLEFVGELALSGQIRYCQGLLPAIIAAKRQDNTLILPLENRHDAELVGYQKVFFGSHLQSLAAFLQGQAPLPELDTHLEWVSEEQSYDSSQCLSDVIGQYQAKQALEIAAAGNHNLLMLGPPGTGKTMLASRMMALLPALSYEEALEVAAIHSVAGLDIKPQDFLKRPFRAPHHTSSSISLVGGGSIPKPGEISLAHRGVLFLDEVAEFPRKVLDCLREPMETGEVVISRAAAKLTFLSRFQLIAAMNPSPSGDIDANNRATPDQVQRYLARLSGPFLDRFDLTIEVPKLPAGTLTQAMAPSETSQDVAKRVRRARDIQLARSGVLNSELTGKQLKLFSGLTDADLIFLEQSVVKLGLSVRSFHRIQRVARTIADLEQSPNTERRHLAQALGYRAMDRLLARLSQQY
MGSDKIHHHHHHMAIEHYWDQALERSTAAQLNGALVPLSTELTRIRARQGEPFELRKLKGHPPSHLLARGPKPNPFLPWDPSLEVSEIGMRHVLILNKYPVQKGHMLLITREWAPQHGWLSYDDWEALLSVDQDTKGLWFFNSSPTAGASQPHRHLQLLRRCDDDRSCPRQEWFQSLVNSSPRESCQLTQCCAATARAQNHDAQIHYQAYLTLCEKIGLGNPAENQHPRQPYNLLLTKEWMALILRSREGIAGFSINALGFAGYLLATETSDLDWLNHHGPEALLEGVVKTIQ
